Laboratory results published in IntAct's records for PubMed 22491013.

B1: Low-density lipoprotein receptor-related protein 6 (Homo sapiens), O75581 (parent)
chain: MGAVLRSLLACSFCVLLRAAPLLLYANRRDLRLVDATNGKENATIVVGGLEDAAAVDFVFSHGLIYWSDVSEEAIKRTEFNKTESVQNVVVSGLLSPDGLACDWLGEKLYWTDSETNRIEVSNLDGSLRKVLFWQELDQPRAIALDPSSGFMYWTDWGEVPKIERAGMDGSSRFIIINSEIYWPNGLTLDYEEQKLYWADAKLNFIHKSNLDGTNRQAVVKGSLPHPFALTLFEDILYWTDWSTHSILACNKYTGEGLREIHSDIFSPMDIHAFSQQRQPNATNPCGIDNGGCSHLCLMSPVKPFYQCACPTGVKLLENGKTCKDGATELLLLARRTDLRRISLDTPDFTDIVLQLEDIRHAIAIDYDPVEGYIYWTDDEVRAIRRSFIDGSGSQFVVTAQIAHPDGIAVDWVARNLYWTDTGTDRIEVTRLNGTMRKILISEDLEEPRAIVLDPMVGYMYWTDWGEIPKIERAALDGSDRVVLVNTSLGWPNGLALDYDEGKIYWGDAKTDKIEVMNTDGTGRRVLVEDKIPHIFGFTLLGDYVYWTDWQRRSIERVHKRSAEREVIIDQLPDLMGLKATNVHRVIGSNPCAEENGGCSHLCLYRPQGLRCACPIGFELISDMKTCIVPEAFLLFSRRADIRRISLETNNNNVAIPLTGVKEASALDFDVTDNRIYWTDISLKTISRAFMNGSALEHVVEFGLDYPEGMAVDWLGKNLYWADTGTNRIEVSKLDGQHRQVLVWKDLDSPRALALDPAEGFMYWTEWGGKPKIDRAAMDGSERTTLVPNVGRANGLTIDYAKRRLYWTDLDTNLIESSNMLGLNREVIADDLPHPFGLTQYQDYIYWTDWSRRSIERANKTSGQNRTIIQGHLDYVMDILVFHSSRQSGWNECASSNGHCSHLCLAVPVGGFVCGCPAHYSLNADNRTCSAPTTFLLFSQKSAINRMVIDEQQSPDIILPIHSLRNVRAIDYDPLDKQLYWIDSRQNMIRKAQEDGSQGFTVVVSSVPSQNLEIQPYDLSIDIYSRYIYWTCEATNVINVTRLDGRSVGVVLKGEQDRPRAVVVNPEKGYMYFTNLQERSPKIERAALDGTEREVLFFSGLSKPIALALDSRLGKLFWADSDLRRIESSDLSGANRIVLEDSNILQPVGLTVFENWLYWIDKQQQMIEKIDMTGREGRTKVQARIAQLSDIHAVKELNLQEYRQHPCAQDNGGCSHICLVKGDGTTRCSCPMHLVLLQDELSCGEPPTCSPQQFTCFTGEIDCIPVAWRCDGFTECEDHSDELNCPVCSESQFQCASGQCIDGALRCNGDANCQDKSDEKNCEVLCLIDQFRCANGQCIGKHKKCDHNVDCSDKSDELDCYPTEEPAPQATNTVGSVIGVIVTIFVSGTVYFICQRMLCPRMKGDGETMTNDYVVHGPASVPLGYVPHPSSLSGSLPGMSRGKSMISSLSIMGGSSGPPYDRAHVTGASSSSSSSTKGTYFPAILNPPPSPATERSHYTMEFGYSSNSPSTHRSYSYRPYSYRHFAPPTTPCSTDVCDSDYAPSRRMTSVATAKGYTSDLNYDSEPVPPPPTPRSQYLSAEENYESCPPSPYTERSYSHHLYPPPPSPCTDSS
partner: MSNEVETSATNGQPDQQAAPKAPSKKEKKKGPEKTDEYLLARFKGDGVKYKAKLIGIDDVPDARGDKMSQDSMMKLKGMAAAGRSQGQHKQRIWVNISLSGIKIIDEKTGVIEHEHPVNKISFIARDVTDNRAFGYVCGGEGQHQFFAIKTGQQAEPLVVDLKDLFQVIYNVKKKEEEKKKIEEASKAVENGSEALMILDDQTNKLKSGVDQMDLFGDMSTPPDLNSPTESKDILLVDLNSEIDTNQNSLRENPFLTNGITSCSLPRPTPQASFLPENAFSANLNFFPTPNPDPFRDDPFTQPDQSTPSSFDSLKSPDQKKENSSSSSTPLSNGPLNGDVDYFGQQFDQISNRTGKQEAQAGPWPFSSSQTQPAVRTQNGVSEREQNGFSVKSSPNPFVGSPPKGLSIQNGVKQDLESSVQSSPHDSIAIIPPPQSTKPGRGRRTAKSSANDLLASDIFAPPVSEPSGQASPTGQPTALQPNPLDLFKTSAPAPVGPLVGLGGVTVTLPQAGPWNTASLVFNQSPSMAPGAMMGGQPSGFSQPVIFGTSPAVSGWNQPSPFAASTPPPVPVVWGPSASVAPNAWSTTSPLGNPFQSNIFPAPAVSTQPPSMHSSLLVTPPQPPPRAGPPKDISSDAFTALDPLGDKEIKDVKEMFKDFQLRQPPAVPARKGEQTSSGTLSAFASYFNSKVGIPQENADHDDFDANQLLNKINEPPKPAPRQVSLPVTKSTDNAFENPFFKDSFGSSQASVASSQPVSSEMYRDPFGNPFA

Variants of: B1
Conditions: with dab2_human DAB2, P98082

| effect of a mutation on the interaction | Variant |
| --- | --- |
| increasing interaction | S1613A |

Variants of: B1
Conditions: with dab2_human DAB2, P98082
Remark: another data set of the same source

| effect of a mutation on the interaction | Variant |
| --- | --- |
| decreasing interaction | S1596A |

Variants of: B1
Conditions: with dab2_human DAB2, P98082
Remark: another data set of the same source

| effect of a mutation on the interaction | Variant |
| --- | --- |
| decreasing interaction | T1610A |

Variants of: B1
Conditions: with dab2_human DAB2, P98082
Remark: another data set of the same source

| effect of a mutation on the interaction | Variant |
| --- | --- |
| decreasing interaction | Y1592A |

Variants of: B1
Conditions: with dab2_human DAB2, P98082
Remark: another data set of the same source

| effect of a mutation on the interaction | Variant |
| --- | --- |
| decreasing interaction | Y1577A |

Variants of: B1
Conditions: with dab2_human DAB2, P98082
Remark: another data set of the same source

| effect of a mutation on the interaction | Variant |
| --- | --- |
| decreasing interaction | S1575A |

Variants of: B1
Conditions: with dab2_human DAB2, P98082
Remark: another data set of the same source

| effect of a mutation on the interaction | Variant |
| --- | --- |
| disrupting interaction | S1579A |

Variants of: B1
Conditions: with dab2_human DAB2, P98082
Remark: another data set of the same source

| effect of a mutation on the interaction | Variant |
| --- | --- |
| decreasing interaction | Y1584A |

Variants of: B1
Conditions: with dab2_human DAB2, P98082
Remark: another data set of the same source

| effect of a mutation on the interaction | Variant |
| --- | --- |
| decreasing interaction | S1590A |

Variants of: B1
Conditions: with dab2_human DAB2, P98082
Remark: another data set of the same source

| effect of a mutation on the interaction | Variant |
| --- | --- |
| decreasing interaction | S1586A |

Variants of: B1
Conditions: with dab2_human DAB2, P98082
Remark: another data set of the same source

| effect of a mutation on the interaction | Variant |
| --- | --- |
| decreasing interaction | S1607A |

Variants of: B1
Conditions: with dab2_human DAB2, P98082
Remark: another data set of the same source

| effect of a mutation on the interaction | Variant |
| --- | --- |
| increasing interaction | S1598A |

Variants of: B1
Conditions: with dab2_human DAB2, P98082
Remark: another data set of the same source

| effect of a mutation on the interaction | Variant |
| --- | --- |
| decreasing interaction | T1572A |

Variants of: B1
Conditions: with dab2_human DAB2, P98082
Remark: another data set of the same source

| effect of a mutation on the interaction | Variant |
| --- | --- |
| decreasing interaction | T1593A |
